In patent US20040138119A1 (BURNHAM INSTITUTE, published 2004):

B4: His6-pro-Caspase-9 (enzyme)
chain: HHHHHHMDEADRRLLRRCRLRLVEELQVDQLWDALLSRELFRPHMIEDIQRAGSGSRRDQARQLIIDLETRGSQALPLFISCLEDTGQDMLASFLRTNRQAAKLSKPTLENLTPVVLRPEIRKPEVLRPETPRPVDIGSGGFGDVGALESLRGNADLAYILSMEPCGHCLIINNVNFCRESGLRTRTGSNIDCEKLRRRFSSLHFMVEVKGDLTAKKMVLALLELAQQDHGALDCCVVVILSHGCQASHLQFPGAVYGTDGCPVSVEKIVNIFNGTSCPSLGGKPKLFFIQACGGEQKDHGFEVASTSPEDESPGSNPEPDATPFQEGLRTFDQLDAISSLPTPSDIFVSYSTFPGFVSWRDPKSGSWYVETLDDIFEQWAHSEDLQSLLLRVANAVSVKGIYKQMPGCFNFLRKKLFFKTS
notes: also called recombinant pro-Caspase-9

What was measured:
GST-HBXIP [1] = target: T1, GST-HBXIP (human, UniProt O43504 1-91); assay: GST pull-down, anti-Caspase-3 immunoblot
[2] = target: HBXIP/Survivin complex (GST-HBXIP with purified untagged Survivin) (human, UniProt O43504 1-91; O15392 1-142); assay: GST pull-down, anti-Caspase-3 immunoblot
His6-pro-Caspase-9 = target: B4; assay: GST pull-down in the presence of Survivin, anti-Caspase-9 immunoblot
GST-HBXIP [3] = target: T1, GST-HBXIP; assay: GST pull-down, anti-Caspase-9 immunoblot

B1: His6-pro-Caspase-3 (enzyme)
chain: HHHHHHMENTENSVDSKSIKNLEPKIIHGSESMDSGISLDNSYKMDYPEMGLCIIINNKNFHKSTGMTSRSGTDVDAANLRETFRNLKYEVRNKNDLTREEIVELMRDVSKEDHSKRSSFVCVLLSHGEEGIIFGTNGPVDLKKITNFFRGDRCRSLTGKPKLFIIQACRGTELDCGIETDSGVDDDMACHKIPVEADFLYAYSTAPGYYSWRNSKDGSWFIQSLCAMLKQYADKLEFMHILTRVNRKVATEFESFSFDATFHAKKQIPCIVSMLTKELYFYH
binding result (GST-HBXIP [1]): no binding
binding result [2]: no binding

B2: GST-CD40 (cytosolic domain) control protein (other, UniProt P25942 216-277, looked up, not shown: a dimerising Fc or GST)
chain: KKVAKKPTNKAPHPKQEPQEINFPDDLPGSNTAAPVQETLHGCQPVTQEDGKESRISVQERQ
notes: domain: cytosolic domain
binding result (His6-pro-Caspase-9): no binding

B3: active His6-Caspase-9 (lacking CARD domain) (enzyme)
chain: HHHHHHVGALESLRGNADLAYILSMEPCGHCLIINNVNFCRESGLRTRTGSNIDCEKLRRRFSSLHFMVEVKGDLTAKKMVLALLELAQQDHGALDCCVVVILSHGCQASHLQFPGAVYGTDGCPVSVEKIVNIFNGTSCPSLGGKPKLFFIQACGGEQKDHGFEVASTSPEDESPGSNPEPDATPFQEGLRTFDQLDAISSLPTPSDIFVSYSTFPGFVSWRDPKSGSWYVETLDDIFEQWAHSEDLQSLLLRVANAVSVKGIYKQMPGCFNFLRKKLFFKTS
notes: also called active Caspase-9
binding result (GST-HBXIP [3]): no binding

B4
binding result (GST-HBXIP [3]): no binding
